US20200040070A1 (CHEMOMAB, published 2020)

Legend:
MCP3 (CCL7) = MCP3 (CCL7) (UniProt P80098 24-99); assay: SPR (Biacore T200), HCM101 immobilized on CM-1 chip, chemokine in solution; MCP3 (CCL7)
Description: (§1) The affinity constant of HCM101 was evaluated using Biacore T200. This method uses Surface Plasmon Resonance (SPR) electro-optical phenomenon to measure the binding constants and on/off rates between binding partners. HCM101 was immobilized on a surface of a CM-1 chip, and a solution of eotaxin 1 (CCL11)/MCP3 (CCL7) was passed over the surface. The changes in SPR angle were measured and enabled to determine the KD (equilibrium dissociation constant).
(§2) Biacore, an SPR based technology was used in order to examine the binding affinity of HCM101, generated by CHO cells, to other, non-CCL24 chemokines.

Eotaxin 1 (CCL11) = biological target: T1, Eotaxin 1 (CCL11) (human, UniProt P51671 24-97); assay: SPR (Biacore T200), HCM101 immobilized on CM-1 chip, chemokine in solution; Eotaxin 1 (CCL11)
T1 construct: also called human CCL11
Description: as §1, §2

T1 sequence (P51671 24-97 limits assumed): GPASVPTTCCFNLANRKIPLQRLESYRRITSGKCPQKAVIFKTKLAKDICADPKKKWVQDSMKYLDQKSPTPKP
Chain of MCP3 (CCL7) (P80098 24-99 limits assumed): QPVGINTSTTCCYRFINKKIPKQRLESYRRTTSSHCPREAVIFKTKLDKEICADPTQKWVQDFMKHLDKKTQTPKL

B1: fully humanized anti CCL24 antibody HCM101 (antibody, V domains shown)
VH: QIQLVQSGPELKKPGASVKVSCRASGYPFTNSGMNWVKQAPGKGLKWMGWINTYNGEPTYTDDFKGRFAFSLETSASTAYLQINNLRNEDTATYFCASHSYGSSYAMDNWGQGTSVTVSS
VL: DIVLTQSPDSLAVSLGERATINCKASQSVDYDGDSYMNWYQQKPGQPPKLLIYVASNLKSGIPARFSGSGSGTDFTLTISSLQPEDFATYYCQQSNEEPWTFGGGTKVEIK
notes: also called humanized version of CM101
- Kd (MCP3 (CCL7)): 130 nM
- Kd (Eotaxin 1 (CCL11)): 30 nM
